Measured values reported in the supplement of paper PMC9112550, “Optimization of the antimicrobial peptide Bac7 by deep mutational scanning” (BMC Biology, 2022).

Tested on: Escherichia coli TOP10
Experiment: shrunken log2 fold change of peptide-encoding DNA abundance (4.5 h post-induction vs induction); higher = less antimicrobial activity (less host growth inhibition)
Settings: time post-induction: 4.5 h; library: site-saturation at positions 5, 18, 19, 20
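Note: peptides expressed intracellularly from a pBAD plasmid library in pooled LB shake-flask culture, induced with 0.3% L-arabinose, DNA abundance read by NGS, three biological replicates, DESeq2 with apeglm shrinkage.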

| Sequence | shrunken log2 fold change |
| --- | --- |
| RRIRGRPPRLPRPRPRPFWMPRP | 0.103 |
| RRIRHRPPRLPRPRPRPWMCPRP | -1.49 |
| RRIRRRPPRLPRPRPRPQQSPRP | 0.273 |
| RRIRNRPPRLPRPRPRPWYKPRP | -0.00149 |
| RRIRLRPPRLPRPRPRPPTWPRP | 0.169 |
| RRIRNRPPRLPRPRPRPRCYPRP | -0.0588 |
| RRIRTRPPRLPRPRPRPYNRPRP | -0.0176 |
| RRIRLRPPRLPRPRPRPDGFPRP | 0.052 |
| RRIRGRPPRLPRPRPRPCAQPRP | 1.07 |
| RRIRYRPPRLPRPRPRPASFPRP | -0.138 |
| RRIRRRPPRLPRPRPRPWPWPRP | 0.0938 |
| RRIRHRPPRLPRPRPRPLDDPRP | -0.172 |
| RRIRGRPPRLPRPRPRPCFTPRP | 0.334 |
| RRIRNRPPRLPRPRPRPTAGPRP | 0.0608 |
| RRIRNRPPRLPRPRPRPAWGPRP | 0.288 |
| RRIRSRPPRLPRPRPRPRGFPRP | 0.82 |
| RRIRTRPPRLPRPRPRPTGMPRP | 0.13 |
| RRIRQRPPRLPRPRPRPHNTPRP | -0.902 |
| RRIRFRPPRLPRPRPRPHIGPRP | -0.482 |
| RRIRKRPPRLPRPRPRPQGVPRP | -0.0162 |
| RRIRIRPPRLPRPRPRPMYWPRP | -0.291 |
| RRIRRRPPRLPRPRPRPPLFPRP | 0.464 |
| RRIRWRPPRLPRPRPRPDHCPRP | -0.00992 |
| RRIRVRPPRLPRPRPRPKQQPRP | 0.0386 |
| RRIRNRPPRLPRPRPRPMTDPRP | -0.088 |

| Sequence | shrunken log2 fold change |
| --- | --- |
| RRIRRRPPRLPRPRPRPDATPRP | 1.32 |
| RRIRERPPRLPRPRPRPHPCPRP | -0.0414 |
| RRIRYRPPRLPRPRPRPMRMPRP | 0.126 |
| RRIRHRPPRLPRPRPRPNLGPRP | -0.00355 |
| RRIRYRPPRLPRPRPRPHWIPRP | -0.398 |
| RRIRNRPPRLPRPRPRPFEQPRP | -0.0506 |
| RRIRERPPRLPRPRPRPCNQPRP | -0.296 |
| RRIRNRPPRLPRPRPRPEWWPRP | 0.315 |
| RRIRYRPPRLPRPRPRPWWRPRP | -0.0462 |
| RRIRRRPPRLPRPRPRPFSKPRP | -0.348 |
| RRIRARPPRLPRPRPRPICIPRP | 0.227 |
| RRIRFRPPRLPRPRPRPCCGPRP | -0.221 |
| RRIRTRPPRLPRPRPRPKGHPRP | 0.208 |
| RRIRIRPPRLPRPRPRPFETPRP | -0.231 |
| RRIRQRPPRLPRPRPRPCMEPRP | -0.1 |
| RRIRCRPPRLPRPRPRPIHNPRP | -0.725 |
| RRIRIRPPRLPRPRPRPFNMPRP | -2.55 |
| RRIRKRPPRLPRPRPRPDPHPRP | -0.0362 |
| RRIRCRPPRLPRPRPRPPDHPRP | 0.279 |
| RRIRWRPPRLPRPRPRPNVIPRP | -0.161 |
| RRIRNRPPRLPRPRPRPYVSPRP | -0.0285 |
| RRIRYRPPRLPRPRPRPNLSPRP | -0.0996 |
| RRIRFRPPRLPRPRPRPAWMPRP | 0.336 |
| RRIRHRPPRLPRPRPRPQKFPRP | -0.0301 |
| RRIRIRPPRLPRPRPRPSCYPRP | -0.392 |

| Sequence | shrunken log2 fold change |
| --- | --- |
| RRIRNRPPRLPRPRPRPAMSPRP | -0.137 |
| RRIRPRPPRLPRPRPRPTGLPRP | 0.156 |
| RRIRSRPPRLPRPRPRPFEVPRP | -0.109 |
| RRIRNRPPRLPRPRPRPQRHPRP | -0.0566 |
| RRIRARPPRLPRPRPRPMREPRP | 0.844 |
| RRIRNRPPRLPRPRPRPSAVPRP | -0.193 |
| RRIRKRPPRLPRPRPRPGKGPRP | -0.0491 |
| RRIRFRPPRLPRPRPRPGGWPRP | 0.654 |
| RRIRYRPPRLPRPRPRPCNHPRP | -0.213 |
| RRIRTRPPRLPRPRPRPAYTPRP | -0.149 |
| RRIRARPPRLPRPRPRPFYQPRP | -0.00727 |
| RRIRQRPPRLPRPRPRPELMPRP | -0.0508 |
| RRIRCRPPRLPRPRPRPYGSPRP | -0.517 |
| RRIRARPPRLPRPRPRPYGKPRP | -0.747 |
| RRIRIRPPRLPRPRPRPFPHPRP | -0.174 |
| RRIRWRPPRLPRPRPRPHEAPRP | 0.273 |
| RRIRHRPPRLPRPRPRPAAVPRP | 0.0752 |
| RRIRCRPPRLPRPRPRPWILPRP | -0.357 |
| RRIRTRPPRLPRPRPRPSQKPRP | 0.039 |
| RRIRVRPPRLPRPRPRPHKDPRP | -0.36 |
| RRIRPRPPRLPRPRPRPPFSPRP | 0.0978 |
| RRIRCRPPRLPRPRPRPCCGPRP | -0.0934 |
| RRIRMRPPRLPRPRPRPGCIPRP | 0.0871 |
| RRIRERPPRLPRPRPRPYFHPRP | -0.996 |
| RRIRQRPPRLPRPRPRPLTCPRP | -0.539 |

| Sequence | shrunken log2 fold change |
| --- | --- |
| RRIRWRPPRLPRPRPRPKLVPRP | 0.00348 |
| RRIRTRPPRLPRPRPRPMPHPRP | 0.182 |
| RRIRERPPRLPRPRPRPNQCPRP | -0.00674 |
| RRIRGRPPRLPRPRPRPDPLPRP | 0.072 |
| RRIRWRPPRLPRPRPRPEQYPRP | -0.171 |
| RRIRIRPPRLPRPRPRPGGIPRP | -0.279 |
| RRIRLRPPRLPRPRPRPDTEPRP | -0.0195 |
| RRIRWRPPRLPRPRPRPMWTPRP | 0.171 |
| RRIRERPPRLPRPRPRPWLPPRP | -0.0302 |
| RRIRDRPPRLPRPRPRPGHGPRP | -0.0236 |
| RRIRYRPPRLPRPRPRPGRAPRP | 0.17 |
| RRIRTRPPRLPRPRPRPVEWPRP | 0.168 |
| RRIRIRPPRLPRPRPRPDPDPRP | -0.131 |
| RRIRMRPPRLPRPRPRPPQVPRP | 0.995 |
| RRIRDRPPRLPRPRPRPFVRPRP | -0.234 |
| RRIRQRPPRLPRPRPRPWAMPRP | -0.0161 |
| RRIRRRPPRLPRPRPRPSECPRP | -0.039 |
| RRIRTRPPRLPRPRPRPNHDPRP | -0.3 |
| RRIRGRPPRLPRPRPRPLQHPRP | 1.18 |
| RRIRHRPPRLPRPRPRPGPAPRP | 0.871 |
| RRIRMRPPRLPRPRPRPHDNPRP | 0.0232 |
| RRIRTRPPRLPRPRPRPMHQPRP | -0.0917 |
| RRIRIRPPRLPRPRPRPFNDPRP | -0.0749 |
| RRIRKRPPRLPRPRPRPMKSPRP | 0.37 |
| RRIRMRPPRLPRPRPRPGRWPRP | 1.66 |

| Sequence | shrunken log2 fold change |
| --- | --- |
| RRIRVRPPRLPRPRPRPCEHPRP | -0.0331 |
| RRIRIRPPRLPRPRPRPIIGPRP | -0.13 |
| RRIRSRPPRLPRPRPRPSADPRP | 0.0633 |
| RRIRPRPPRLPRPRPRPWAYPRP | -0.0727 |
| RRIRVRPPRLPRPRPRPIRTPRP | 0.782 |
| RRIRMRPPRLPRPRPRPGPPPRP | 1.23 |
| RRIRVRPPRLPRPRPRPNNSPRP | -0.309 |
| RRIRVRPPRLPRPRPRPLNRPRP | -0.328 |
| RRIRLRPPRLPRPRPRPMPLPRP | -0.043 |
| RRIRFRPPRLPRPRPRPNHWPRP | -0.131 |
| RRIRMRPPRLPRPRPRPHLHPRP | -0.301 |
| RRIRVRPPRLPRPRPRPWRNPRP | 0.065 |
| RRIRIRPPRLPRPRPRPWVPPRP | -0.28 |
| RRIRYRPPRLPRPRPRPSFTPRP | -0.91 |
| RRIRERPPRLPRPRPRPAHNPRP | -0.0074 |
| RRIRIRPPRLPRPRPRPYCTPRP | -0.215 |
| RRIRARPPRLPRPRPRPNRAPRP | -0.0385 |
| RRIRARPPRLPRPRPRPWYSPRP | -0.43 |
| RRIRDRPPRLPRPRPRPVNSPRP | 0.0226 |
| RRIRVRPPRLPRPRPRPSWLPRP | 0.23 |
| RRIRWRPPRLPRPRPRPDVKPRP | -0.26 |
| RRIRDRPPRLPRPRPRPNSRPRP | -0.0447 |
| RRIRLRPPRLPRPRPRPSHHPRP | -0.319 |
| RRIRTRPPRLPRPRPRPQPQPRP | 0.222 |
| RRIRPRPPRLPRPRPRPIAQPRP | 0.487 |
